From patent US20240084003A1 (SIMCERE ZAIMING PHARMACEUTICAL, published 2024) come the findings set out here.

One assay deals with T1, human CD22 domain5-7-His (human, UniProt P20273 414-687).
T1 construct: also called hCD22 domain5-7-His; not shown: His tag
T1 sequence: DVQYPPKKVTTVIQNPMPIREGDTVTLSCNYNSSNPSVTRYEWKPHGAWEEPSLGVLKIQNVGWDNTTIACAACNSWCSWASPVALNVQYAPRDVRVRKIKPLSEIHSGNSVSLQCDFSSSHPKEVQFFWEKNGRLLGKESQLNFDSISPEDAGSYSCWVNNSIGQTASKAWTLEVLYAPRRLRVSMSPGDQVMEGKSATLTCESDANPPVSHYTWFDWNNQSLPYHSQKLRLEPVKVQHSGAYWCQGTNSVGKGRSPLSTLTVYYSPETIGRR
Kind of assay: ELISA, plate coated with human CD22 domain5-7-His.

The target in assay [1] is T2, rhesus monkey CD22-ECD-His protein (rhesus monkey, UniProt H9G1X2 18-686).
T2 construct: extracellular domain; also called monkey CD22 protein
T2 sequence: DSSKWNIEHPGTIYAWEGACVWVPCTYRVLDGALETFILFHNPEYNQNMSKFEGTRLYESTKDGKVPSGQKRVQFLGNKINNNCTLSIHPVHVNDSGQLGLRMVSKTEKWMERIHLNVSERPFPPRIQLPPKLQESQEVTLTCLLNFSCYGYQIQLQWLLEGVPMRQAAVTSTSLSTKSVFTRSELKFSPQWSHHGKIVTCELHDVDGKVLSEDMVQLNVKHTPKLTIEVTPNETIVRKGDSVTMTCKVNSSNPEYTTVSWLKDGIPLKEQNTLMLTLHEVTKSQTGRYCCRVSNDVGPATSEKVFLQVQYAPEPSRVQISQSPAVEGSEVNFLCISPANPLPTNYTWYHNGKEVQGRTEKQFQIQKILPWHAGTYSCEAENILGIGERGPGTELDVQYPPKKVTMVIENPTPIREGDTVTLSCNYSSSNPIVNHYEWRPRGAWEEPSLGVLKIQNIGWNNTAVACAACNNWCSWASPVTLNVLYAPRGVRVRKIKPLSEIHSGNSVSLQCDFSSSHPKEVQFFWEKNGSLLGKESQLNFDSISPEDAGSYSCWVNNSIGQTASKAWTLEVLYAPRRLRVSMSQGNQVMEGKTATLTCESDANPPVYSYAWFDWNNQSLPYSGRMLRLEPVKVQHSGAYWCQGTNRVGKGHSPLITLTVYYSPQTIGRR
In words: SPR (Biacore), antibody captured on Protein A chip, rhesus CD22 in solution.

The target of assay [2] is T3, human CD22-ECD-His protein (human, UniProt P20273 20-687).
T3 construct: Recombinant, from HEK293E cells; also called hCD22-ECD-His; human CD22-His protein; not shown: His tag
T3 sequence: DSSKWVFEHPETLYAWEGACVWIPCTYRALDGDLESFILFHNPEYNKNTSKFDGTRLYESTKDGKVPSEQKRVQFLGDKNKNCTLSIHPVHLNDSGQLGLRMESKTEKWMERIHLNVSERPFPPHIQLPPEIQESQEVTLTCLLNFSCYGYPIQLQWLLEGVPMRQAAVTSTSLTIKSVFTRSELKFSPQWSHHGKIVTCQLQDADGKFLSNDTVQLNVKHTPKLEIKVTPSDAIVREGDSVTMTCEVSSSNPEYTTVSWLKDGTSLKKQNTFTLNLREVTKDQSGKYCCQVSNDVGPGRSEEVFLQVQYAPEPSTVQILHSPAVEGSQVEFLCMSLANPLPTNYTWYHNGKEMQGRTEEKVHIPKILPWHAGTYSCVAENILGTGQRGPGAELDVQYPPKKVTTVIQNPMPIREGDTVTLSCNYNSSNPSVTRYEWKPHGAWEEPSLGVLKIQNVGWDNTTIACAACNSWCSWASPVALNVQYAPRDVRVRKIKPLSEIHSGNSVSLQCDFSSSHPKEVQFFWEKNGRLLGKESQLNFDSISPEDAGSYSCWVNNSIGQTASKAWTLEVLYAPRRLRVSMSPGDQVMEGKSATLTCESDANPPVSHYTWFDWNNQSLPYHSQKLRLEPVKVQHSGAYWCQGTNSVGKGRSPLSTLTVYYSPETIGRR
In words: SPR (Biacore), antibody captured on Protein A chip, CD22-ECD-His in solution. As to the method: Sample buffer and running buffer were HBS-EP+(10 mM HEPES, 150 mM NaCl, 3 mM EDTA, 0.05% surfactant P20) (GE Healthcare; BR-1006-69). The flow-through cell was set to 25° C. The sample block was set to 16° C. Both were pretreated with the running buffer. In each cycle, the antibody to be tested was first captured with a Protein A chip, then a single concentration of CD22 antigen protein was injected. The binding and dissociation process of the antibody and the antigen protein was recorded, and finally Glycine pH 1.5 (GE Healthcare; BR-1003-54) was used to complete chip regeneration. Binding was measured by injecting different concentrations of recombinant human CD22-ECD His protein in solution for 240 s with a flow rate of 30 μL/min. The concentration started from 200 nM (see the detailed results for the actual concentration in the test) and was diluted at 1:1, making a total of 5 concentrations. The dissociation phase was monitored for up to 600 s and was triggered by switching from sample solution to running buffer. The surface was regenerated by washing with a 10 mM of glycine solution (pH 1.5) for 30 s at a flow rate of 30 μL/min. Bulk refractive index difference was corrected by subtracting the response obtained from the goat anti-human Fc surface. Blank injection was also subtracted (=double reference). For calculation of apparent KD and other kinetic parameters, Langmuir 1:1 model was used.

B1: F2.99.1 (antibody, human IgG1, lambda, V domains shown)
VH: QVTLKESGPGILQPSQTLSLTCSFSGFSLSTFPMGVGWIRQPSGKGLEWLAHIWWDDDEYYNPVLKSRLTISKDTSKKQVYLRIANVDTVDTATYYCTRANWDRWYFDVWGTGTTVTVSS
VL: QLVLTQSSSASFSLGASAKLTCTLSRQHSAYTIEWYQQQPLKPPKYVMEVKKDGSHSTGDGIPDRFSGSSSGADRYLSISNIQPEDEAIYICGVGDTIKEHFVFGGGTKVTVLG
notes: Chimeric IgG1 lambda
For B1, the binding result with human CD22 domain5-7-His is recorded as “no binding”. In assay [1], this molecule registered a dissociation constant Kd of 14.5 nM, a koff of 0.000545 s⁻¹ and an on-rate constant (kon) of 37600 M⁻¹ s⁻¹. Besides, in assay [2], the dissociation constant Kd was 1.55 nM, the off-rate (koff) amounted to 0.000162 s⁻¹ and the kon worked out at 105000 M⁻¹ s⁻¹.

B2: F2.173.9 (antibody, human IgG1, lambda, V domains shown)
VH: EVQLVESGGDLVKPGESLKLSCEASGFTFSNYAMSWVRQTPDRRLEWVATISSIGSFTYYSDSVKGRFTISRDNVKSTLHLQMNNLKSGDTAIYFCARLGVYFDSWGQGTTLTVSS
VL: QLVLTQSSSASFSLGASAKLTCTLSSQHSTYTIEWYQQQPHKPPKFVMEIKKDGSHYTGDGIPDRFSGSSSGADRYLSISNIQPEDETIYICGVSDMIKDQFVYVFGGGTKVTVLG
notes: Chimeric IgG1 lambda
For the molecule B2, in the assay with human CD22 domain5-7-His, the binding result is reported as “no binding”. In assay [1], this molecule returned a dissociation constant (Kd) of 46.7 nM, a koff of 0.000883 s⁻¹ and an on-rate (kon) of 18900 M⁻¹ s⁻¹. In assay [2], this molecule yielded a Kd of 4.74 nM, a koff of 0.000232 s⁻¹ and a kon of 49000 M⁻¹ s⁻¹.

B3: HA22-hIgG1 (antibody, V domains shown)
VH: EVQLVESGGGLVKPGGSLKLSCAASGFAFSIYDMSWVRQTPEKCLEWVAYISSGGGTTYYPDTVKGRFTISRDNAKNTLYLQMSSLKSEDTAMYYCARHSGYGTHWGVLFAYWGQGTLVTVSA
VL: DIQMTQTTSSLSASLGDRVTISCRASQDISNYLNWYQQKPDGTVKLLIYYTSILHSGVPSRFSGSGSGTDYSLTISNLEQEDFATYFCQQGNTLPWTFGCGTKLEIKR
For B3, the binding result with human CD22 domain5-7-His is on record as “no binding”. In assay [1], the equilibrium dissociation constant (Kd) came out at 3.41 nM, the koff was found to be 0.000234 s⁻¹ and the on-rate (kon) worked out at 68600 M⁻¹ s⁻¹. In addition, in assay [2], the affinity, expressed as Kd, was 1.33 nM; the off-rate constant (koff) was 8.96e-05 s⁻¹; the on-rate constant (kon) came out at 67400 M⁻¹ s⁻¹.
